The results in this text go back to PMC10942606.

For orientation: Kd means the concentration at which binding is half-saturated. The term stoichiometry N denotes a count of units in the complex or per binding partner.

This assay concerns the target T1, SpPCNA (recombinant S. pombe PCNA) (S. pombe), Q03392.
T1 chain: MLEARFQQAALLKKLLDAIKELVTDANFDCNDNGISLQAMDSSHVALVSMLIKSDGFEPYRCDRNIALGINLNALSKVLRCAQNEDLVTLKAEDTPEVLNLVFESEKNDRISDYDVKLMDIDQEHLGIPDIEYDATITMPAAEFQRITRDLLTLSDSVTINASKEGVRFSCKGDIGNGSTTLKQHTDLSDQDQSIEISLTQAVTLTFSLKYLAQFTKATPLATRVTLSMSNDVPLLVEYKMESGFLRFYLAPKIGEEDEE
Nature of the assay: ITC. Background: Isothermal titration calorimetry measures the heat released or taken up as one component is titrated into another.

In the case of QLKLNNFF (modifications not checked) [Pcf1_PIP peptide], the Kd was found to be 7.1 µM, the dH was -2.9 kCal.M^–1 and the stoichiometry N amounted to 0.97.
KNTAQSKPQQKSIMSFFGKK (modifications not checked) [Cdc27_PIP peptide]: the dissociation constant Kd was determined as 3.5 µM, the dH was -4.8 kCal.M^–1 and the stoichiometry N amounted to 0.9.
